Source: US20230218875A1, “PARTICLE-ATTACHED MICRONEEDLE AND METHOD OF MANUFACTURING THE SAME” (QuadMedicine, Inc., priority 2022, published 2023)

Test: Adhesion force of ovalbumin particles to PDMS 40 by centrifugation
Type: physicochemical
Method: Ovalbumin particles with an average diameter of 10 μm were attached to a plate with a diameter of 0.5 cm containing a PDMS 40 adhesive layer. Next, the plate was placed in a centrifuge tube. After centrifuging the tube at 27,000 g (Centrifuge, 1730R, LABOGENE, South Korea) for 10 min, the plate was weighed using a high-precision balance (Satorius SE2-F, Gottingen, Germany), and the amount of ovalbumin particles separated from the surface of PDMS 40 during centrifugation was calculated.

B1: ovalbumin particles: Ovalbumin particles with an average diameter of 10 μm attached to a plate containing a PDMS 40 adhesive layer (protein, UniProt P01012 2-386, looked up)
Ovalbumin: GSIGAASMEFCFDVFKELKVHHANENIFYCPIAIMSALAMVYLGAKDSTRTQINKVVRFDKLPGFGDSIEAQCGTSVNVHSSLRDILNQITKPNDVYSFSLASRLYAEERYPILPEYLQCVKELYRGGLEPINFQTAADQARELINSWVESQTNGIIRNVLQPSSVDSQTAMVLVNAIVFKGLWEKAFKDEDTQAMPFRVTEQESKPVQMMYQIGLFRVASMASEKMKILELPFASGTMSMLVLLPDEVSGLEQLESIINFEKLTEWTSSNVMEERKIKVYLPRMKMEEKYNLTSVLMAMGITDVFSSSANLSGISSAESLKISQAVHAAHAEINEAGREVVGSAEAGVDAASVSEEFRADHPFLFCIKHIATNAVLFFGRCVSP
modifications: particles
notes: Ovalbumin particles with an average diameter of 10 μm attached to a plate containing a PDMS 40 adhesive layer
Initial ovalbumin particles remaining on the surface of PDMS 40 (27,000 g for 10 min, pressure 0.2 N/cm^2, average diameter 10 μm): 96% | Vertical adhesion force between ovalbumin particles and PDMS 40 (from centrifugation at 27,000 g): more than 0.2 N/cm^2
